According to article PMC2756588:

T1: Abp1, P15891
T1 sequence (P15891 535-592, looked up): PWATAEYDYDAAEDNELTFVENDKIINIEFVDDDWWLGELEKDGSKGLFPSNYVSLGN

T2: Bbc1, P47068
T2 sequence (P47068 1-78, looked up): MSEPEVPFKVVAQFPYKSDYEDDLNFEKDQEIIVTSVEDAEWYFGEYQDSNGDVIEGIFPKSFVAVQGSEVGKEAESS

T3: Boi1, P38041
T3 sequence (P38041 1-86, looked up): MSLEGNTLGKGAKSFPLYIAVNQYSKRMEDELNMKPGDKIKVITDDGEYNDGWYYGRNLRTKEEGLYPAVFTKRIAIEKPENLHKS

T4: Boi2, P39969
T4 sequence (P39969 32-116, looked up): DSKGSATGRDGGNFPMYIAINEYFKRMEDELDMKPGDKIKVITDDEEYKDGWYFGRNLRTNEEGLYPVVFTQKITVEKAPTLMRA

T5: Bud14, P27637
T5 sequence (P27637 247-328, looked up): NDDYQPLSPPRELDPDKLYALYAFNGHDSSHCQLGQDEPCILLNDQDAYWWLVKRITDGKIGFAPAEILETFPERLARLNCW

T6: Bzz1-1, P38822
T6 sequence (P38822 478-572, looked up): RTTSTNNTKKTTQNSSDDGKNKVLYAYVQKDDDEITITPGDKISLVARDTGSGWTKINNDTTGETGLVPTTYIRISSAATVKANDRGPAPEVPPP

T7: Bzz1-2, P38822
T7 sequence (P38822 568-633, looked up): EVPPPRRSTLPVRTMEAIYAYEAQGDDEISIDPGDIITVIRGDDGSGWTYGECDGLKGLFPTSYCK

T8: Cdc25, P04821
T8 sequence (P04821 50-136, looked up): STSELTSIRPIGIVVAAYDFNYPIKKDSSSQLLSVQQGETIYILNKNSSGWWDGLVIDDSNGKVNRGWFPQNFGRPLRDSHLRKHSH

T9: Cyk3, Q07533
T9 sequence (Q07533 1-83, looked up): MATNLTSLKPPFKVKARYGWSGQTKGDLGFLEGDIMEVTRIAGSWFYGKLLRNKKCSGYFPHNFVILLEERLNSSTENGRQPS

T10: Fus1, P11710
T10 sequence (P11710 432-512, looked up): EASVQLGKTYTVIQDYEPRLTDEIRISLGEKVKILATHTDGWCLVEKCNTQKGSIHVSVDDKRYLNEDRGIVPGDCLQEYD

T11: Hof1, Q05080
T11 sequence (Q05080 590-669, looked up): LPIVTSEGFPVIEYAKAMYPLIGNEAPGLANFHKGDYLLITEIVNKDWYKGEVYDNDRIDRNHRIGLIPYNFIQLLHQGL

T12: Hse1, P38753
T12 sequence (P38753 208-285, looked up): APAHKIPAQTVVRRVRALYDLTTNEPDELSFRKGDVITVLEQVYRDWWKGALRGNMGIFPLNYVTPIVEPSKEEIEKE

T13: Lsb1, P53281
T13 sequence (P53281 45-122, looked up): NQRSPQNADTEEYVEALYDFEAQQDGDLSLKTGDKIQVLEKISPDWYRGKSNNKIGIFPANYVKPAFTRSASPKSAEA

T14: Lsb3, P43603
T14 sequence (P43603 385-451, looked up): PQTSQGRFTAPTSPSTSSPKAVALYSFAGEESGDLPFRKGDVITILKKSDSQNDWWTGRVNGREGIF

T15: Lsb4, P32793
T15 sequence (P32793 402-468, looked up): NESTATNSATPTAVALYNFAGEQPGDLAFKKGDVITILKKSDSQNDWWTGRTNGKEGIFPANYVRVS

T16: Myo5, Q04439
T16 sequence (Q04439 1072-1160, looked up): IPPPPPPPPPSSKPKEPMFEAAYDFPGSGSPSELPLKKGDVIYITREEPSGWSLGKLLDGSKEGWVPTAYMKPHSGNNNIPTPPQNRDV

T17: Nbp2, Q12163
T17 sequence (Q12163 103-180, looked up): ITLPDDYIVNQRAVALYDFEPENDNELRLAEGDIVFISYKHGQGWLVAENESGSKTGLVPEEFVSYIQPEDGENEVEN

T18: Pex13, P80667
T18 sequence (P80667 295-386, looked up): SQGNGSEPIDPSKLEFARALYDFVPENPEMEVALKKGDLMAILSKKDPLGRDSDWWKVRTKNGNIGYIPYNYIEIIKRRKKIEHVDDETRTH

T19: Pin3, Q06449
T19 sequence (Q06449 53-122, looked up): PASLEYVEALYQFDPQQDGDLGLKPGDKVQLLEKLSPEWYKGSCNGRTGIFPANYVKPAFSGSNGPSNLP

T20: Sla1-2, P32790
T20 sequence (P32790 60-140, looked up): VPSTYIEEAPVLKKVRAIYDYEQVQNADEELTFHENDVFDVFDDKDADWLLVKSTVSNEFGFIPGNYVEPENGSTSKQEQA

T21: Sla1-3, P32790
T21 sequence (P32790 344-424, looked up): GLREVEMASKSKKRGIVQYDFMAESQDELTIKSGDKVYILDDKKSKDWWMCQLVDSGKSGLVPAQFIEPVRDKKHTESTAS


Assays:
Experiment in all cases: SPOT array
Abp1, P15891 = biological target: T1, Abp1, P15891; settings: median of control spots 935
Bbc1, P47068 = biological target: T2, Bbc1, P47068; settings: median of control spots 796
Bem1-1, P29366 = settings: median of control spots 4282
Bem1-2, P29366 = settings: median of control spots 4347
Boi1, P38041 = biological target: T3, Boi1, P38041; settings: median of control spots 1162
Boi2, P39969 = biological target: T4, Boi2, P39969; settings: median of control spots 1161
Bud14, P27637 = biological target: T5, Bud14, P27637; settings: median of control spots 956
Bzz1-1, P38822 = biological target: T6, Bzz1-1, P38822; settings: median of control spots 4446
Bzz1-2, P38822 = biological target: T7, Bzz1-2, P38822; settings: median of control spots 4538
Cdc25, P04821 = biological target: T8, Cdc25, P04821; settings: median of control spots 969
Cyk3, Q07533 = biological target: T9, Cyk3, Q07533; settings: median of control spots 1451
Fus1, P11710 = biological target: T10, Fus1, P11710; settings: median of control spots 1200
GST = settings: median of control spots 978
Hof1, Q05080 = biological target: T11, Hof1, Q05080; settings: median of control spots 4086
Hse1, P38753 = biological target: T12, Hse1, P38753; settings: median of control spots 1727
Lsb1, P53281 = biological target: T13, Lsb1, P53281; settings: median of control spots 388
Lsb3, P43603 = biological target: T14, Lsb3, P43603; settings: median of control spots 406
Lsb4, P32793 = biological target: T15, Lsb4, P32793; settings: median of control spots 397
Myo3, P36006 = settings: median of control spots 468
Myo5, Q04439 = biological target: T16, Myo5, Q04439; settings: median of control spots 471
Nbp2, Q12163 = biological target: T17, Nbp2, Q12163; settings: median of control spots 357
Pex13, P80667 = biological target: T18, Pex13, P80667; settings: median of control spots 1341
Pin3, Q06449 = biological target: T19, Pin3, Q06449; settings: median of control spots 2171
Rvs167, P39743 = settings: median of control spots 2707
Sho1, P40073 = settings: median of control spots 1148
Sla1-2, P32790 = biological target: T20, Sla1-2, P32790; settings: median of control spots 712
Sla1-3, P32790 = biological target: T21, Sla1-3, P32790; settings: median of control spots 5475

Bem1-1, P29366, sequence (P29366 55-141): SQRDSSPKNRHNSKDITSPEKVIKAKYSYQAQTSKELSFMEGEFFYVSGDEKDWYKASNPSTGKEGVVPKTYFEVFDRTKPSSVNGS
Bem1-2, P29366, sequence (P29366 139-227): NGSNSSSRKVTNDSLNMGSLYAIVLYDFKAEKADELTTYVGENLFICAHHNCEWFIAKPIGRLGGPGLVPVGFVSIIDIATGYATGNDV
Sho1, P40073, sequence (P40073 287-367): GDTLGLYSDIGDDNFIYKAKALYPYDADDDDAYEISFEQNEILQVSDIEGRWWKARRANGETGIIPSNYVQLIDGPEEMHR
Rvs167, P39743, sequence (P39743 419-482): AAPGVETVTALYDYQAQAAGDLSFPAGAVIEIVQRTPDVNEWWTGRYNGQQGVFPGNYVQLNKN

Binder	SPOT intensity (Abp1, P15891)	SPOT intensity (Bbc1, P47068)	SPOT intensity (Bem1-1, P29366)	SPOT intensity (Bem1-2, P29366)	SPOT intensity (Boi1, P38041)	SPOT intensity (Boi2, P39969)	SPOT intensity (Bud14, P27637)	SPOT intensity (Bzz1-1, P38822)	SPOT intensity (Bzz1-2, P38822)	SPOT intensity (Cdc25, P04821)	SPOT intensity (Cyk3, Q07533)	SPOT intensity (Fus1, P11710)	SPOT intensity (GST)	SPOT intensity (Hof1, Q05080)	SPOT intensity (Hse1, P38753)	SPOT intensity (Lsb1, P53281)	SPOT intensity (Lsb3, P43603)	SPOT intensity (Lsb4, P32793)	SPOT intensity (Myo3, P36006)	SPOT intensity (Myo5, Q04439)	other results
VATSTSPKLPPRGKQ	23	23	6	0	0	1	0	2	0	0	1	0	0	2	0	561	695	275	0	0	SPOT intensity (Nbp2, Q12163): 0; SPOT intensity (Pex13, P80667): 87; SPOT intensity (Pin3, Q06449): 15; SPOT intensity (Rvs167, P39743): 4100; SPOT intensity (Sho1, P40073): 1; SPOT intensity (Sla1-2, P32790): 0; SPOT intensity (Sla1-3, P32790): 13
NPLPKEPRLPKRKVA	131	221	0	1	4	2	26	6	29	22	4	2	2	5	191	19	282	288	7	0	SPOT intensity (Nbp2, Q12163): 0; SPOT intensity (Pex13, P80667): 16; SPOT intensity (Pin3, Q06449): 10; SPOT intensity (Rvs167, P39743): 200; SPOT intensity (Sho1, P40073): 107; SPOT intensity (Sla1-2, P32790): 2; SPOT intensity (Sla1-3, P32790): 45
VQPTAAPATPPRHIS	0	2	2	0	0	0	0	0	0	2	0	13	0	0	0	45	251	251	0	0	SPOT intensity (Nbp2, Q12163): 0; SPOT intensity (Pex13, P80667): 0; SPOT intensity (Pin3, Q06449): 0; SPOT intensity (Rvs167, P39743): 12; SPOT intensity (Sho1, P40073): 0; SPOT intensity (Sla1-2, P32790): 0; SPOT intensity (Sla1-3, P32790): 5
QQNRPLPQLPNRNNR	228	40	3	1	1	1	4	4	0	2	0	2	0	112	23	176	484	484	0	0	SPOT intensity (Nbp2, Q12163): 0; SPOT intensity (Pex13, P80667): 589; SPOT intensity (Pin3, Q06449): 34; SPOT intensity (Rvs167, P39743): 1310; SPOT intensity (Sho1, P40073): 1600; SPOT intensity (Sla1-2, P32790): 0; SPOT intensity (Sla1-3, P32790): 10
